The values below come from patent publication US20220259330A1 (SUNSHINE GUOJIAN PHARMACEUTICAL SHANGHAI, published 2022).

Assay [1] deals with T1, biotinylated human PD-1 extracellular recombinant protein (Sino Biological, Cat. No. 10377-H08H-B) (human, UniProt Q15116 25-170, biotinylated).
T1 construct: extracellular domain; Bought; detection reagent in the bridging ELISAs
Nature of the assay: bridging ELISA: TGF-β1 coated, antibody titrated, biotinylated human PD-1 and streptavidin-HRP for detection. In general terms: An ELISA detects its analyte on a solid surface through an enzyme-linked reagent.

Assay [2] deals with TGF-β1 (Sino Biological, Cat. No. 10804-HNAC) (UniProt P01137 279-390). Nature of the assay: ELISA, plate coated with TGF-β1.
Assay [3] has as its target T2, PD1-His (human, UniProt Q15116 25-170).
T2 construct: extracellular domain; In-house protein; also called extracellular domain protein of human PD-1 with a 6*His tag
Nature of the assay: ELISA, plate coated with PD1-His.

Assay [4] has as its target T1, biotinylated human PD-1 extracellular …. Kind of assay: bridging ELISA: plate coated with TGF-β1, antibody titrated, detected with biotinylated human PD-1 ECD and Streptavidin-HRP; antibody first captured on plate-coated TGF-β1.
Assay [5] has as its target T3, LAG3-ECD-His (human, UniProt P18627 23-450).
T3 construct: extracellular domain; Bought; not shown: polyhistidine tag
T3 sequence (looked up): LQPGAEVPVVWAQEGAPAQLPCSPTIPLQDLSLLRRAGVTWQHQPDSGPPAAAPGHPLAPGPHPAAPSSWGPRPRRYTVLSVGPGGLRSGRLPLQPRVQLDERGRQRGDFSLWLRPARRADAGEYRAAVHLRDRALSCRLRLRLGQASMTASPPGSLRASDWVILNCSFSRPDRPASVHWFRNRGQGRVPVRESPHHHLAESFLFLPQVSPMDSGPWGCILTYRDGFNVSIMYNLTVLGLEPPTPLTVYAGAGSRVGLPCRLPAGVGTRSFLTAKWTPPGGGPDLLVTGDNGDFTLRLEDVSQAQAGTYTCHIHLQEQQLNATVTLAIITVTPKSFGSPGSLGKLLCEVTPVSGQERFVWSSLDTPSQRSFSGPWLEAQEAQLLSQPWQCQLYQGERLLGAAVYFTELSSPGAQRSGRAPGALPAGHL
Nature of the assay: ELISA, plate coated with LAG3-ECD-His.

Assay [6] deals with T3, LAG3-ECD-His. Kind of assay: ELISA, LAG3-ECD-His coated.

Values joined by “and” are separate entries in the source; they are usually repeats but may differ in a detail not shown here. Equal entries are not always repeated.

Chain of TGF-β1 (Sino Biological, Cat. No. 10804-HNAC) (P01137 279-390 limits assumed): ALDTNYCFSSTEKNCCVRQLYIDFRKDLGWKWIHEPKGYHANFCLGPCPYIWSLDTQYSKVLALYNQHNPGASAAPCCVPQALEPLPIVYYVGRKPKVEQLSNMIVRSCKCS
T1 sequence (Q15116 25-170): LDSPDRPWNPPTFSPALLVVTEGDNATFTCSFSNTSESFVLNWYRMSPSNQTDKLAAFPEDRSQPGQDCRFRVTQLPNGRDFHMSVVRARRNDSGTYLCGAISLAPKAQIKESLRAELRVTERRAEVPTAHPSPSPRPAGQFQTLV
T2 sequence (Q15116 other isoform, or with tags, fused parts or gaps): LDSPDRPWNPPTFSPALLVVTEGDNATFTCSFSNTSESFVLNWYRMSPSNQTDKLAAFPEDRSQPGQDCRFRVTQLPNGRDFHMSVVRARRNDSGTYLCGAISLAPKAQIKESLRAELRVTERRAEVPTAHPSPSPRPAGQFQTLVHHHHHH

B1: mAb127-HC+14-Hu-LC (antibody, human IgG4 S228P, kappa, V domains shown)
VH: QVQLVQSGAEVKKPGASVKVSCKASGYTFTSEWMNWVRQAPGQGLEWMGQIFPALGSTNYNEMYEGRVTMTTDTSTSTAYMELRSLRSDDTAVYYCARGIGNYALDAMDYWGQGTLVTVSS
VL: DIVLTQSPASLAVSPGQRATITCRASESVDNYGNSFMNWYQQKPGQPPKPLIYFASNLESGVPARFSGSGSRTDFTLTINPVEADDTANYYCQQNNEAPPTFGQGTKVEIKR
notes: Hybrid antibody
B1: the binding result in assay [1] is listed as “no binding”. For the same molecule, the EC50 (commonly the concentration that produces a half-maximal response) in assay [2] was 0.0711 nM and 0.0803 nM.

B2: 14-Fab-127-IgG4 (bispecific antibody)
heavy: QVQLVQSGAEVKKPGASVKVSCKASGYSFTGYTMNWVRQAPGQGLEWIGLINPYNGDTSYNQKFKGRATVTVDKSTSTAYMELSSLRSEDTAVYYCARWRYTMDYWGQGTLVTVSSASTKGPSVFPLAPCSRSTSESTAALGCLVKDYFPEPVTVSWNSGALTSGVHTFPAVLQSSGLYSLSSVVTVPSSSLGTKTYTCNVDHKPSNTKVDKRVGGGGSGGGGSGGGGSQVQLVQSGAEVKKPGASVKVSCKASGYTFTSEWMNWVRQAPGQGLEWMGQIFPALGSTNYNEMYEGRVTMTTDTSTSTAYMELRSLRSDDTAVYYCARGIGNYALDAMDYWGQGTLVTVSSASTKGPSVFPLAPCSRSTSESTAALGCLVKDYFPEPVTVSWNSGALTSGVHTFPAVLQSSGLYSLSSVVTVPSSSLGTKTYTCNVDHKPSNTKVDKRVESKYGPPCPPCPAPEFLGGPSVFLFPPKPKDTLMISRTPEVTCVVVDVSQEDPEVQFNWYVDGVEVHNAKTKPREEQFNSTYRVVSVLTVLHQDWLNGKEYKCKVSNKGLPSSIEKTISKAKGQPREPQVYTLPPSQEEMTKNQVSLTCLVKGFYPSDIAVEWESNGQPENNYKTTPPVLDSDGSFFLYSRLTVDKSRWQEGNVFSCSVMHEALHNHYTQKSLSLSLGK
light: DIVLTQSPASLAVSPGQRATITCRASESVDNYGNSFMNWYQQKPGQPPKPLIYFASNLESGVPARFSGSGSRTDFTLTINPVEADDTANYYCQQNNEAPPTFGQGTKVEIKRTVAAPSVFIFPPSDEQLKSGTASVVCLLNNFYPREAKVQWKVDNALQSGNSQESVTEQDSKDSTYSLSSTLTLSKADYEKHKVYACEVTHQGLSSPVTKSFNRGEC
Take B2: the EC50 in assay [2] is 0.152 nM; in assay [3], 0.387 nM; in assay [4], 0.278 nM.

B3: 5E7-Hu (antibody, human IgG4 S228P, kappa, V domains shown)
VH: EVQLVESGGGLVKPGGSLRLSCAASGFTFSDDYMAWFRQAPGKRLEWVASISHGGDYIYYADNLKGRFTISRDNAKNSLYLQMNSLRAEDTAVYFCSRDRRSIDYWGQGTLVTVSS
VL: DIQMTQSPSSLSASVGDRVTITCRASQDISNYLSWYQQKPGKTIKLLIYYTSRLHSGVPSRFSGSGSGTDYTFTISSLQPEDIATYFCQQGKTLPYTFGQGTKVEIKR
notes: Humanized anti-human LAG-3, IgG4 (S228P), kappa; also called 5E7-Hu-HC+5E7-Hu-LC
As to B3, it took 0.147 nM to reach a half-maximal effect in assay [5] (EC50). Besides, the EC50 (read off the curve) (in general, the concentration needed to bring the measured effect to its halfway point) in assay [6] was about 0.1 nM.
